In patent US20240287172A1 (SCIRHOM, published 2024):

Biological target: T1, hiR2-FL-H505R-T7 (human, UniProt Q6PJF5 1-856)
T1 sequence: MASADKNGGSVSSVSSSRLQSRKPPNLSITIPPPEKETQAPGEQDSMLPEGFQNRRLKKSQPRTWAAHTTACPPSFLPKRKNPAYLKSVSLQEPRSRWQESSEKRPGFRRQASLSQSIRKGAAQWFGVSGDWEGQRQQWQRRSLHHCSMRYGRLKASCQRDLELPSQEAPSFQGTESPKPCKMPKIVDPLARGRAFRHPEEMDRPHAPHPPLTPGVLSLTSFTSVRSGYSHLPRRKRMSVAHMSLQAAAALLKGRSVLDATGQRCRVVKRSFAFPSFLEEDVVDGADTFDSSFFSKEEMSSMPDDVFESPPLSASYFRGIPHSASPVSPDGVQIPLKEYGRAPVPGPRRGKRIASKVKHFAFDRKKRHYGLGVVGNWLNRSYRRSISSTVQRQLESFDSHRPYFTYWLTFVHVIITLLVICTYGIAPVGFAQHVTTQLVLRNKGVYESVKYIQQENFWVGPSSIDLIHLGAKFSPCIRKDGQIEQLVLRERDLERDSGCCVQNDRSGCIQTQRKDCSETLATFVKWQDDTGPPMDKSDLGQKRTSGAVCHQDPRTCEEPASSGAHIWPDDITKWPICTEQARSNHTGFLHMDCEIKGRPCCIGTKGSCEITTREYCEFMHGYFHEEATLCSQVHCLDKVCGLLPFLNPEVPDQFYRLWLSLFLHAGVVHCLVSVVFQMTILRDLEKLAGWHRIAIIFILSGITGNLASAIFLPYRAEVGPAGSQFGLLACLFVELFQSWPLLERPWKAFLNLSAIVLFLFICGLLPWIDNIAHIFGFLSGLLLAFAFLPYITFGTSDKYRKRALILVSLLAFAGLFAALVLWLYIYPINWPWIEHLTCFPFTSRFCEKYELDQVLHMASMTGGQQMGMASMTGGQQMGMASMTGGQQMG
Assay: FACS, MEF-DKO cells, 3 µg/ml

B1: antibody 50 (antibody, V domains shown)
VH: QVQLQQSGAELVRPGASVKVSCKASGYAFSNYLIEWVKQRPGQGLEWIGVINPGSGFTKYNEKFKGKATLTADKSSSTAYMQLSSLTSEDSAVYFCARGLYRAMDYWGQGTSVTVSS
VL: DIQMTQSPASQSASLGESVTITCLASQTIGTWLAWYQQKPGKSPQLLIYAAASLADGVPSRFSGGGSGTKFSFKISSLQAEDFVNYYCQQIYSTPYTFGGGTKLEIK
notes: mouse IgG, kappa light chain; also called clone #50; purified antibody 50
B1 was tested, and the “loss of binding vs wild type” value was ≥ 95%.
